Experimental data from the DeepSol protein solubility set.

Test: soluble on expression in E. coli; label from the status in PepcDB or PDB records

| Sequence | soluble on expression in E. coli |
| --- | --- |
| MRPMALPAWREVALPHEDIRRGRFDESTFAADLADVLAGRGPLEYRDPLTFFRKTYPTKGMVRLLGAVVRRLSGEKGGEPVVQIQTPFGGGKTHGLVALYHLFRSGEEARGTELYARVLEEAGVERIPEAKVAVFVGTAADPLKGRTPWGELALQLGHYGLLEEHDKARQAPGKERLYELFRAAGGPVLILMDEVAEYVARTVDPTALHKEGGSLEGGRAYQTQVLAFFQELTEAVKVAPQVALVMTIPSSAPYGEEGERALLQLQRIAGRLEAIYEPVKGWEIYDVIRTRLFEGIRDEGVVRKVAERYFELYRRLGTEVPDEARDPAYRERMRRAYPFHPELIDALYERWGTLSTFQRTRGVLRFLAEIVADLYGREHSAPLIHSAHVNLANPSIRRELVKHIGNEFDSVIAADIADPEGQAKAQRLDREMGSEYVRFQVASGLATAIFLYSFSGGERKGASPAQLRLAALRPEVPPPLVGDALGRLRELLWYLHEASGLYYFSSQPNLNRIVVERENAVDPEQIRQALRERLERIAGRELRVYLEPHSPQDVPDTKELKLAVLSEPSGSLAEELLEKAGTTFRTYKNTLFLLSPDPNSLGDLHRAARRYLALRSIREDRTLYGQLSAENRHRLDELLREADGALTQKLFMAYRRLTKPGRQGPETYDMGIPTVGEASTLAKRVYEYLKAREFLLERIAPRHLLSALAQGETGKPLQEVYEAFLRYPHLPVLKGWEVLEEAVRKGVAEGTFGLRVGERYYFQEPVLGIAWEEAFLVRKEALPPERESVVDGEKKGEASSEGVAPKPDSSEEEVPPDSSGGEARPERVQEYTVKVRLPWNRLSDFLRGVLMPLQREGAEMELQIELRARSQEGIPRATLDKIRETLDQLQAKVEEA | soluble |
| GMAGAAHRLMEARMRRYDNKFARISDIDINQPESWRGRIFLTFDIDWAADFVLQDTIDLIEGAGVCATWFATHSTPLLENIRRNPLFELGVHPNFNPLLAGAHAEGVQEILDRTLELAPGCVSVRSHSLVQATSILNMFGERRLRYDCNILVPWDAGIVLQPWRHWTGDMVRVPYLWEDDVACLYDWEFDSTFDYWYQPDGINVLDFHPIHVYMNTESLRRYEDSREVHRNPVDLIRWRNTSAGSRTFLQSLLARNI | soluble |
| SNAMSLEKLDTNTFEQLIYDEGKACLVMFSRKNCHVCQKVTPVLEELRLNYEESFGFYYVDVEEEKTLFQRFSLKGVPQILYFKDGEYKGKMAGDVEDDEVEQMIADVLED | soluble |
| MASIELRNVQTELAAKNLQFKVLTEKFLEQRKELFDAKKTDSNVEYVECLSEKLRVATERISDLEKETKEGKQVANEEIGRLEKLLREAQQKRDAKIDESYQTFLRIELLVANLGESTDPENEKRIKNLMPAAKTGIPPEGVLRLTINALDSAARESKKKTMAIESLTKQVDDANKLTEVYMKRLEELEDKHRFEEALTLKIQAMMIETTGQLEAQKKIIADLQKKNDDLMKEEEGEEDYEEEENYEVEEDFEDEEEYDEEGEEEDYE | not soluble |
| SAVFADLDLRAGSDLKALRGLVETAAHLGYSVVAINHIVDFKEKKQEIEKPVAVSELFTTLPIVQGKSRPIKILTRLTIIVSDPSHCNVLRATSSRARLYDVVAVFPKTEKLFHIACTHLDVDLVCITVTEKLPFYFKRPPINVAIDRGLAFELVYSPAIKDSTMRRYTISSALNLMQICKGKNVIISSAAERPLEIRGPYDVANLGLLFGLSESDAKAAVSTNCRAALLHGETRKTAFGIISTVKKPRPSEGDEDCLPASKKAKCEG | soluble |
| GASMDAIKKKMQMLKLDKENALDRAEQAEADKDFYFGKLRNIELICQENEGENDPVLQRIVDILYATDEGFVIPD | soluble |
| MFTIKKATTNDIQLINEMAQIVFPATYREILSKEQLDYMMDWMYSPKNLRKQMEEEGHIYYIAYKDGEAAGYVSIQPEGEHLFHLQKIYVLPLFQGCRLGKALFEQAVKAIKEIHPGPCEMHLNVNRNNKALQFYQHLGMEKVAEGDFHIGNGYYMNDYIMGLKI | not soluble |
| MLMDGHTHTELCPHGSGEATEKMIQRAIQLGFQRYCITEHAPLPPAFRDQYEGTPAGYTEASLRENQVADYLALANGLKTKYAGQIEISVGFEVDFLPEHVAWTRDFLNTYGPRTQESILSVHFMRGLRQHFWCVDMSTDDFAAGFGQWLKTPQRVFEQYYQTVLASVQADLGPYAPQRIGHMSLVRKYQDYFGLTEPLDVHNLQLVDQTLALVKQQRRQLDLNLAGLYKPYCNDFYPGEQILQRAQKLDIPLVYGSDAHDIASVGRGYHLIKKLIEGLEHHHHHH | not soluble |
| MRERVCVSHCVLQRTVVCRPRTFVRERIRTQFKLVSLFITMPKSLRKRFVLVSIDDNIEQINAARKLRRYLTNNHLNHIFSSTPEEMKEYLDKLDSGTFNFRETAEEQKSVDPFSEANQPAIQMSSNQEILEKWARGTFAENSDALKLLLEPTNIEEDAVLDDHESENIVNNIPQLFMVNSMDAETPNDSIIVENGKEDQLDMAYCSLCKHEVETGRNRNTKIRKQTEHVLDAHPESEFLNVDIAKRYECVHCLRTLPVSKSPCEHISEHHDKTHVEIEFRDLWSNEQVSTFNSVMEKCFLRHLPVPRSRRIRNGNTWYLSEKASYRIVRGGEIIHISTVADKSKTDNGKESKQSRLDNSERGKPTRSMDSDYDIFDNQDETDSEEGARSESIDTGNKVSESEPGSLQSVIDLE | not soluble |
| MGSDKIHHHHHHMTTDILNISEEQLVDYSKAHNEPSWMTELRKKALKLTETLEMPKPDKTKLRKWDFDSFKQHDVKGDVYQSLSQLPESVREIIDVDHSKNLVIQHNNTIAYTQVDDNASKDGVIVEGLADALMNHSDLVQKYFMKDAVTVDEHRITALHTALVNGGVFVYVPKNVVVEHPVQYVVLHDDENASFYNHVIIVTEESAEVTYVENYLSNASGEGNQLNIISEVIAGANSNITYGSVDYMDKGFTGHIIRRGITEADASINWALGLMNEGSQIIDNTTNLFGDRSTSSLKSVVIGTGEQKINLTSKIVQYGKETDGYILKHGVMKEHASSVFNGIGYIKHGGTKSIANQESRVLMLSEHARGDANPILLIDEDDVQAGHAASVGRVDPDQLYYLMSRGISQREAERLVIHGFLDPVVRELPIEDVKRQLREVIERKVSK | not soluble |
| ANFQYIITEKKGKNSSVGLIQLNRPKALNALCNGLIEELNQALETFEEDPAVGAIVLTGGEKAFAAGADIKEMQNRTFQDCYSGKFLSHWDHITRIKKPVIAAVNGYALGGGCELAMMCDIIYAGEKAQFGQPEILLGTIPGAGGTQRLTRAVGKSLAMEMVLTGDRISAQDAKQAGLVSKIFPVETLVEEAIQCAEKIANNSKIIVAMAKESVNAAFEMTLTEGNKLEKKLFYSTFATDDRREGMSAFVEKRKANFKDH | soluble |
| RLSQRLIEPVSALKVQLDQHQGDTSQKFIVPEGSAKEFQTLASQLNEYRSQINQVIKREQAFARYASHELRTPLTVMKGSSSLLARSPSTPFQERQIGRIQDATQQMSTMVDALLGLVRYERNTDDSPVRTISEQELHNIVALSQAQADEKSLEFNVQILGHPQTKATTAVLNITLSNLIRNGIAATSAGTIHITMTDTTLSVKDEGEGFSSVPDAEGHGLGLMIVDDLCRRYGWQFTIDTHSEGGCEAVIDLSSEHHEACSEQLPQH | not soluble |
| MGSDKIHHHHHHLRNVLPKDALLTAVDISDSMMDVARAKFLPHEQVTFQVADATTLPFENEAFDAVVCQFGVMFFDKDTAFREAYRTLGRGGRYLFSVWDSRRYNPFASLAFEVLKQFFPLNPPRFLEAPVSSFEIDPIKEALIQSGFERIVISVQGREHDILDVRTFARGLVFSPVIEEIRERGGVEPEDIIAALAEALKREYGSRPTRYPMQAILFEAEKP | not soluble |
| MNLSNHFLIAMPDMEDAFFSQSVVYICKHDEDGALGIAINKPSPITMDMIFSATGKNIPMRMQHDSVMMGGPVQVERGYVVHTPIGNWQSSIGVSDNIALTSSRDVIENISREGAVDKALISIGYSSWSKGQLERELADNAWLTVPADEHILFDIPYEHRYAAAFAKLGIDPLALFSGAGHA | not soluble |
| MGSDKIHHHHHHMRGEKNELLSWINNFVEVNNKAIDNSFEKFKSEPSNQYNLPFKNVSWYTLRKTLADNVEESKKARGCLYAVLDYNESELKELGLILNSNLHSIKKIANKIMQNAGIEFQFRFEAIMRLLLDKKNNLMLLNIPDLKRIKICLENFLSLRTTFRELVKQLLNDYNSNKESIKSENIKLGDYLNKAFSDIVLSMDKNPINLEKEIRNIIVI | not soluble |
| MSLQWKPAGDKIRTFWAEKVDVNNVLPEYPRPIMERSDWQNLNGLWNYAVLPLGQSAPTTFDGKILVPFAIESSLSGVGKTLGMEKELWYQRAFNIPSSWRGKRVLLHFGAVDWKTEVWVNNIKVGEHTGGFTPFTFDVTEALEKSTNTLTVKVWDPTDKGFQPRGKQVSNPRGIWYTPVSGIWQTVWLEPVSEHYIAGIKTTPDIDTNKIKVKVETDSNRQSDRLEVKVFDGKHLVAMGTSINGLPVEIPMPADAKLWSPDSPFLYQMEVSLISAGKLVDQIKSYVAMRKYSIKRDEHGIVRLQLNNKDLFQFGPLDQGWWPDGLYTAPTDEALRYDIEKTKDFGFNMIRKHIKVEPARWYTYCDQIGLIVWQDMPSGDKSPEWQNRKYFEGTELTRSAESEETYRKEWKEVIDCLYSYPCIGTWVPFNEAWGQFKTQEIAEWTKQYDPSRLVNPASGGNHYTCGDMLDLHHYPGPEMFLYDAQRATVLGEYGGIGLVLKDHLWEPNRNWGYIQFNTSAEATAEYLKYAGILKDMISRGFSAAVYTQTTDVEVEVNGLMTYDRKVIKLDESKLKKMNTEICNSLKEGHHHHHH | soluble |
| SLDGAHKMARVWVGILNWSLKHIVGLKYRIIGAENIPDRPAVICAKHQSGWETLALQDIFPPQVYVAKRELFKIPFFGWGLKLVKTIGIDRNNRREANEQLIKQGLVRKNEGYWITIFPEGTRLAPGKRGKYKLGGARMAKMFEMDIVPVALNSGEFWPKNSFLKYPGEITVVICPTIPHASGSEAELMEKCEHLIETQQPLISGAGPFAAKMPSETAEG | soluble |
| SKEFFAPQRAGMKLRTFSDIDKYYTEQKKQEYHKEKVRVVAMAQVARERVRVAVNEHLNQKKYATQKLIEENKETIQNSLRQVWQNRFNYLEKARERKALFLKEKSQKASERLLVQNLNNERTLLTRGLLKIDRLEKNEAVLKEKSLIVKQKLKAEKYRKNLLKEMKKVRSQEIYKRHCEEKFVMDMIAFEKACERLQDAKTKVAIVKTNLDFKVPNGLIK | soluble |
| VSYVSVLPATLATAATEVARIGSALSLASAVAAAQTSAVQAAAADEVSAAIAALFSAHGRDFQALSARAAAFHHEFVQALAAGAGSYAVAEIAAASPLQSLIDVFNAPIQAATGRPLIGNGANGQPGTGAPGGPAGG | soluble |
| MAHHHHHHMRIHAPPYPFFNFLFLCFHTEPRRIPRRTVSYTQVVPASIFHGMADRALTCVRPAAYFLPGDRASSFLSSGAILLFEERVCTPHKASESTVCPVAGHSKVFAPSCYVEPFSIIEVALEERRNRVGRMSWCFRLFAIKLRGGNPTQFPPPASSVEHVQV | not soluble |
| MSLKYKLLVLDVDGTLLNDAKEISKRTLAALLKVQQMGVRIVLASGRPTYGLMPLAKSLELGNYGGYILSYNGCQIINAQNGEILFERRINPEMLPYLEKKARKNNFALFTYHDDTIITDTPENEHIQNEARLNNLKVIKEEEFSVAIDFAPCKCMLVSDDEEALVSLEGHWKRRLNGALDVFRSEPYFLEVVPCAIDKANTLGALLEELDVKREEVIAIGDGVCDVTMIQLAGLGVAMGHSQDSVKVCADYVTASNEEDGVALAVEKAIIAEVRAAEIPLDQLNAQARHALMGNLGIQYTYADEDRVEATMPVDHRTRQPFGILHGGATLALGETVAGLGSMILCQPDEIVVGMQVSGNHISSAHEGDTVRAVATIVHKGRSSHVWNVDVFTSTNKLVSSIRVVNSVMKKREGHHHHHH | soluble |
